What all share (assay): ITC
In one data set the target is T1, CSTF2 RRM K98E (Homo sapiens, UniProt P33240 1-107, K98E).
T1 sequence: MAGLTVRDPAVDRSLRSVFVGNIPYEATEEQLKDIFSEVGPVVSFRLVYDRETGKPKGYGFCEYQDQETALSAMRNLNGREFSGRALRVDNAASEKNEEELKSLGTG

For data set [1], the target named is T2, CSTF2 (CstF-64) RRM wild-type (Homo sapiens, UniProt P33240 1-107).
T2 sequence: T1 sequence with E98K

The next data set deals with T3, CSTF2 RRM E26A (Homo sapiens, UniProt P33240 1-107, E26A).
T3 sequence: T1 sequence with E26A, E98K

For another data set, the target named is T4, CSTF2 RRM F45A (Homo sapiens, UniProt P33240 1-107, F45A).
T4 sequence: T1 sequence with F45A, E98K

For another data set, the target named is T5, CSTF2 RRM K96E (Homo sapiens, UniProt P33240 1-107, K96E).
T5 sequence: T1 sequence with K96E, E98K

Another data set has as its target T6, CSTF2 RRM D50A (Homo sapiens, UniProt P33240 1-107, D50A).
T6 sequence: T1 sequence with D50A, E98K

Another data set concerns the target T7, CSTF2 RRM D90K (Homo sapiens, UniProt P33240 1-107, D90K).
T7 sequence: T1 sequence with D90K, E98K

For the next data set, the target named is T8, CSTF2 RRM A93E (Homo sapiens, UniProt P33240 1-107, A93E).
T8 sequence: T1 sequence with A93E, E98K

The target in the next data set is T9, CSTF2 RRM D90I (Homo sapiens, UniProt P33240 1-107, D90I).
T9 sequence: T1 sequence with D90I, E98K

Residue numbers refer to the chain shown, from its start.

Consider AUUUUAUGUUUCAGGU (ssRNA) [SVL RNA], for which the Kd (usually the equilibrium constant for the complex coming apart) in the data set with CSTF2 RRM K98E is 8700 ± 110 nM; in [1] it was 1520 ± 170 nM; with CSTF2 RRM E26A it was 520 ± 10 nM; with CSTF2 RRM F45A, 1010 ± 50 nM; in the data set with CSTF2 RRM K96E it was 38700 ± 4200 nM; with CSTF2 RRM D50A, 698 ± 60 nM. The values for the Kd in the data set with CSTF2 RRM D90K, with CSTF2 RRM A93E and with CSTF2 RRM D90I were 608 ± 10 nM, 3880 ± 770 nM and 1260 ± 330 nM, respectively.

The values are drawn from PMC8873925.
